Numbering of substitutions follows the chain as printed. In names and notes the source's numbering stands. Each block holds one binder with its values, some of them ahead of it.
Biological target: His-PKM2, purified recombinant (UniProt P14618-1 1-531)
Test: pull-down

Sequence of His-PKM2, purified recombinant (P14618 whole entry): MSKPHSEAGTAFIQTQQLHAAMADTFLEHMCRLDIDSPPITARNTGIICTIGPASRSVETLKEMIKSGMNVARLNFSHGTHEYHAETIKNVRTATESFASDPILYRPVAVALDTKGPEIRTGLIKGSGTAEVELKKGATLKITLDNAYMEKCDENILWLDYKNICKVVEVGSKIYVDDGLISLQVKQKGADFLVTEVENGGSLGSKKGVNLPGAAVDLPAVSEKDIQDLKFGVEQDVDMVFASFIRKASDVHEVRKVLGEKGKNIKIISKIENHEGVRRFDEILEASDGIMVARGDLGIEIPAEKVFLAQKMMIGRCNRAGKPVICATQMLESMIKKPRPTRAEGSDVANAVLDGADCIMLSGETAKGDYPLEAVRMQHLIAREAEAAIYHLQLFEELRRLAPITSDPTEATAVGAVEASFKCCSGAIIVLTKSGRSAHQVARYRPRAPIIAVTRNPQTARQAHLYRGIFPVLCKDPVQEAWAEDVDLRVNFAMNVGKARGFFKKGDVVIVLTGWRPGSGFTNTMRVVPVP

binding result: binds
B1: GST-KHK-A (enzyme)
chain: MEEKQILCVGLVVLDVISLVDKYPKEDSEIRCLSQRWQRGGNASNSCTVLSLLGAPCAFMGSMAPGHVADFVLDDLRRYSVDLRYTVFQTTGSVPIATVIINEASGSRTILYYDRSLPDVSATDFEKVDLTQFKWIHIEGRNASEQVKMLQRIDAHNTRQPPEQKIRVSVEVEKPREELFQLFGYGDVVFVSKDVAKHLGFQSAEEALRGLYGRVRKGAVLVCAWAEEGADALGPDGKLLHSDAFPPPRVVDTLGAGDTFNASVIFSLSQGRSVQEALRFGCQVAGKKCGLQGFDGIV

binding result: binds
B2: GST-KHK-A G257R (enzyme)
chain: B1 chain with G257R

Source: PMC11252482 (Acta Pharmaceutica Sinica. B, 2024)
